From patent US20050106100
“And” between values parts separate entries of the source, which are not always exact repeats. Equal values may be shown once.

Key:
[1] = target: T1, Ac-DArg-P-Aib-G˜Hphe-LA-Ahxh-Hynic (not fully specified)
T1 chain: RPXGXLA

[2] = target: T2, Ac-Tic-Cit-G˜Hphe-SA-Ahxh-Hynic
T2 chain: XXGXSA

[3] = target: T3, Ac-PLG˜Ahp-YL-Ahxh-Ac[C14] (not fully specified)
T3 chain: PLGXYL

[4] = target: T4, NLys-PLG˜Hphe-YL-Ambh-Hynic
T4 chain: XPLGXYL

[5] = target: T5, Ac-PLG˜Pabu-Cit-L-Ahxh-Ac[C14] (not fully specified)
T5 chain: PLGXXL

[6] = target: T6, Ac-PLG˜Hphe-K(Me)2-L-Ahxh-Hynic (not fully specified)
T6 chain: PLGXKL

[7] = target: T7, Ac-P-Cit-Hse˜Hphe-SA-Ahxh-Hynic (not fully specified)
T7 chain: PXXXSA

[8] = target: T8, Ac-LRY˜Cha-TA-Ahxh-Hynic (not fully specified)
T8 chain: LRYXTA

[9] = target: T9, Ac-PLG˜Hphe-YLR-Ahxh-Hynic
T9 chain: PLGXYLR

[10] = target: T10, Ac-P-Cit-G˜Chg-LA-Ahxh-Hynic (not fully specified)
T10 chain: PXGXLA

[11] = target: T11, Ac-P-Cit-G˜Aib-LA-Ahxh-Hynic (not fully specified)
T11 chain: PXGXLA

[12] = target: T12, Ac-POG˜Hphe-LQ-Ahxh-Hynic
T12 chain: PXGXLQ

[13] = target: T13, Ac-PLG˜Hphe-YLA-Ahxh-Hynic
T13 chain: PLGXYLA

[14] = target: T14, Ac-Csa-PLG˜Hphe-YL-Ambh-Hynic (not fully specified)
T14 chain: XPLGXYL

[15] = target: T15, Ac-PLG˜Hphe-RLA-Ahxh-Hynic
T15 chain: PLGXRLA

[16] = target: T16, Ac-PRG˜LLT-Ahxh-Hynic
T16 chain: PRGLLT

[17] = target: T17, Ac-P-NMeArg-R˜LTA-Ambh-Hynic (not fully specified)
T17 chain: PRRLTA

[18] = target: T18, Ac-P-Cit-G˜Hphe-LQ-Hynic (not fully specified)
T18 chain: PXGXLQ

[19] = target: T19, Ac-POG˜Hphe-L-Ambh-Hynic
T19 chain: PXGXL

[20] = target: T20, Ac-PLG˜LYS-Ahxh-Ac[C14] (not fully specified)
T20 chain: PLGLYS

[21] = target: T21, Ac-PLG˜Hphe-KL-Ahxh-Ac[C14] (not fully specified)
T21 chain: PLGXKL

[22] = target: T22, Ac-POG˜Hphe-L-Hynic
T22 chain: PXGXL

[23] = target: T23, Ac-PLG˜LYQ-Ahxh-Ac[C14] (not fully specified)
T23 chain: PLGLYQ

[24] = target: T24, Ac-PLG˜L-Cha-Ahxh-Ac[C14] (not fully specified)
T24 chain: PLGLX

[25] = target: T25, Ac-P-Cit-G˜Abu-LA-Ahxh-Hynic (not fully specified)
T25 chain: PXGXLA

[26] = target: T26, Ac-P-Cit-G˜Hphe-LA-Ahxh-Hynic (not fully specified)
T26 chain: PXGXLA

[27] = target: T27, Ac-PLG˜LYA-Ahxh-Hynic (not fully specified)
T27 chain: PLGLYA

[28] = target: T28, Ac-PL-NLys-LL-dLeu-Ahxh-Ac[C14]
T28 chain: PLXLLL

[29] = target: T29, Ac-P-DArg-R˜LTA-Ahxh-Hynic (not fully specified)
T29 chain: PRRLTA

[30] = target: T30, Ac-P-Cit-Aib˜Hphe-LA-Ahxh-Hynic (not fully specified)
T30 chain: PXXXLA

[31] = target: T31, Ac-PLG˜Hphe-RLT-Ahxh-Hynic
T31 chain: PLGXRLT

[32] = target: T32, Ac-PRR˜Cha-TA-Ambh-Hynic
T32 chain: PRRXTA

[33] = target: T33, Ac-PLG˜Hphe-KL-Ahxh-Hynic
T33 chain: PLGXKL

[34] = target: T34, Suc-PLG˜LYT-Ahxh-Hynic
T34 chain: PLGLYT

[35] = target: T35, Ac-PLG-LYV-Ahxh-Ac[C14]
T35 chain: PLGLYV

[36] = target: T36, Ac-PRR˜LTA-Ahxh-Hynic
T36 chain: PRRLTA

[37] = target: T37, Ac-PL-NLys-LL-NHNH-Ac[C14]
T37 chain: PLXLL

[38] = target: T38, Ac-PLG˜LRA-Ahxh-Hynic (not fully specified)
T38 chain: PLGLRA

[39] = target: T39, Ac-P-Hcit-G˜Hphe-SA-Ahxh-Hynic (not fully specified)
T39 chain: PXGXSA

[40] = target: T40, Ac-PLG˜Hphe-RL-Ahxh-Hynic
T40 chain: PLGXRL

[41] = target: T41, Ac-PL-Sar˜LL-Ahxh-Ac[C14] (not fully specified)
T41 chain: PLXLL

[42] = target: T42, Ac-PRG˜Hphe-LA-Ahxh-Hynic
T42 chain: PRGXLA

[43] = target: T43, Hynic-Ahx-PLG˜Hphe-OLEE-OH
T43 chain: XPLGXXLEE

[44] = target: T44, Ac-PLG˜Hphe-YL-Hynic
T44 chain: PLGXYL

[45] = target: T45, Ac-PLG˜LRL-Ahxh-Hynic (not fully specified)
T45 chain: PLGLRL

[46] = target: T46, Ac-PL-NLys˜LL-Ahxh-Ac[C14] (not fully specified)
T46 chain: PLXLL

[47] = target: T47, Ac-PLG˜Ahp-OL-Ahxh-Ac[C14] (not fully specified)
T47 chain: PLGXXL

[48] = target: T48, Ac-PLG˜Hphe-OLR-Ahxh-Hynic
T48 chain: PLGXXLR

[49] = target: T49, Ac-P-DLeu-G˜LL-Ahxh-Hynic (not fully specified)
T49 chain: PLGLL

[50] = target: T50, Ac-P-Cit-G˜S(OBn)-LA-Ahxh-Ac[C14] (not fully specified)
T50 chain: PXGSLA

[51] = target: T51, Ac-PLG˜LR-Ahxh-Hynic (not fully specified)
T51 chain: PLGLR

[52] = target: T52, Ac-PL-NLys˜Ahp-YL-Ahxh-Ac[C14] (not fully specified)
T52 chain: PLXXYL

B1: MMP-2 (protein)
chain: APSPIIKFPGDVAPKTDKELAVQYLNTFYGCPKESCNLFVLKDTLKKMQKFFGLPQTGDLDQNTIETMRKPRCGNPDVANYNFFPRKPKWDKNQITYRIIGYTPDLDPETVDDAFARAFQVWSDVTPLRFSRIHDGEADIMINFGRWEHGDGYPFDGKDGLLAHAFAPGTGVGGDSHFDDDELWTLGEGQVVRVKYGNADGEYCKFPFLFNGKEYNSCTDTGRSDGFLWCSTTYNFEKDGKYGFCPHEALFTMGGNAEGQPCKFPFRFQGTSYDSCTTEGRTDGYRWCGTTEDYDRDKKYGFCPETAMSTVGGNSEGAPCVFPFTFLGNKYESCTSAGRSDGKMWCATTANYDDDRKWGFCPDQGYSLFLVAAHEFGHAMGLEHSQDPGALMAPIYTYTKNFRLSQDDIKGIQELYGASPDIDLGTGPTPTLGPVTPEICKQDIVFDGIAQIRGEIFFFKDRFIWRTVTPRDKPMGPLLVATFWPELPEKIDAVYEAPQEEKAVFFAGNEYWIYSASTLERGYPKPLTSLGLPPDVQRVDAAFNWSKNKKTYIFAGDKFWRYNEVKKKMDPGFPKLIADAWNAIPDNLDAVVDLQGGGHSYFFKGAYYLKLENQSLKSVKFGSIKSDWLGC
Kcat/Km [1]: 18600 M⁻¹ s⁻¹
Kcat/Km [2]: 3100 M⁻¹ s⁻¹
Kcat/Km [3]: 38700 M⁻¹ s⁻¹
Kcat/Km [4]: 121000 M⁻¹ s⁻¹
Kcat/Km [5]: 0 M⁻¹ s⁻¹
Kcat/Km [6]: 72000 M⁻¹ s⁻¹
Kcat/Km [7]: 91400 M⁻¹ s⁻¹
Kcat/Km [8]: 0 M⁻¹ s⁻¹
Kcat/Km [9]: 364000 M⁻¹ s⁻¹
Kcat/Km [10]: 14400 M⁻¹ s⁻¹
Kcat/Km [11]: 0 M⁻¹ s⁻¹
Kcat/Km [12]: > 250000 M⁻¹ s⁻¹
Kcat/Km [13]: 221000 M⁻¹ s⁻¹
Kcat/Km [14]: 19500 M⁻¹ s⁻¹
Kcat/Km [15]: 64000 M⁻¹ s⁻¹
Kcat/Km [16]: 98600 M⁻¹ s⁻¹
Kcat/Km [17]: 879 M⁻¹ s⁻¹
Kcat/Km [18]: 171000 M⁻¹ s⁻¹
Kcat/Km [19]: 77700 M⁻¹ s⁻¹
Kcat/Km [20]: > 500000 M⁻¹ s⁻¹
Kcat/Km [21]: 103000 M⁻¹ s⁻¹
Kcat/Km [22]: 63700 M⁻¹ s⁻¹
Kcat/Km [23]: 439000 M⁻¹ s⁻¹
Kcat/Km [24]: 359000 M⁻¹ s⁻¹
Kcat/Km [25]: 17600 M⁻¹ s⁻¹
Kcat/Km [26]: 827000 M⁻¹ s⁻¹
Kcat/Km [27]: 404000 M⁻¹ s⁻¹
Kcat/Km [28]: 0 M⁻¹ s⁻¹
Kcat/Km [29]: 6880 M⁻¹ s⁻¹
Kcat/Km [30]: 275 M⁻¹ s⁻¹
Kcat/Km [31]: 119000 M⁻¹ s⁻¹
Kcat/Km [32]: 0 M⁻¹ s⁻¹
Kcat/Km [33]: 78900 M⁻¹ s⁻¹
Kcat/Km [34]: 141000 M⁻¹ s⁻¹
Kcat/Km [35]: 396000 M⁻¹ s⁻¹
Kcat/Km [36]: 10100 M⁻¹ s⁻¹
Kcat/Km [37]: 134000 M⁻¹ s⁻¹
Kcat/Km [38]: > 500000 M⁻¹ s⁻¹
Kcat/Km [39]: 293000 M⁻¹ s⁻¹
Kcat/Km [40]: 242000 M⁻¹ s⁻¹
Kcat/Km [41]: 111000 M⁻¹ s⁻¹
Kcat/Km [42]: > 500000 M⁻¹ s⁻¹
Kcat/Km [43]: 83900 M⁻¹ s⁻¹ and 42500 M⁻¹ s⁻¹
Kcat/Km [44]: 63200 M⁻¹ s⁻¹
Kcat/Km [45]: 182000 M⁻¹ s⁻¹
Kcat/Km [46]: 180000 M⁻¹ s⁻¹
Kcat/Km [47]: 4970 M⁻¹ s⁻¹
Kcat/Km [48]: 46600 M⁻¹ s⁻¹
Kcat/Km [49]: 5010 M⁻¹ s⁻¹
Kcat/Km [50]: > 500000 M⁻¹ s⁻¹
Kcat/Km [51]: 162000 M⁻¹ s⁻¹
Kcat/Km [52]: 0 M⁻¹ s⁻¹

B2: human MMP-9 (protein)
chain: MRTPRCGVPDLGRFQTFEGDLKWHHHNITYWIQNYSEDLPRAVIDDAFARAFALWSAVTPLTFTRVYSRDADIVIQFGVAEHGDGYPFDGKDGLLAHAFPPGPGIQGDAHFDDDELWSLGKGVVVPTRFGNADGAACHFPFIFEGRSYSACTTDGRSDGLPWCSTTANYDTDDRFGFCPSERLYTQDGNADGKPCQFPFIFQGQSYSACTTDGRSDGYRWCATTANYDRDKLFGFCPTRADSTVMGGNSAGELCVFPFTFLGKEYSTCTSEGRGDGRLWCATTSNFDSDKKWGFCPDQGYSLFLVAAHEFGHALGLDHSSVPEALMYPMYRFTEGPPLHKDDVNGIRHLYGPRPEPEPRPPTTTTPQPTAPPTVCPTGPPTVHPSERPTAGPTGPPSAGPTGPPTAGPSTATTVPLSPVDDACNVNIFDAIAEIGNQLYLFKDGKYWRFSEGRGSRPQGPFLIADKWPALPRKLDSVFEERLSKKLFFFSGRQVWVYTGASVLGPRRLDKLGLGADVAQVTGALRSGRGKMLLFSGRRLWRFDVKAQMVDPRSASEVDRMFPGVPLDTHDVFQYREKAYFCQDRFYWRVSSRSELNQVDQVGYVTYDILQCPED
Kcat/Km [1]: 0 M⁻¹ s⁻¹
Kcat/Km [2]: 1880 M⁻¹ s⁻¹
Kcat/Km [3]: 60400 M⁻¹ s⁻¹
Kcat/Km [4]: 264000 M⁻¹ s⁻¹
Kcat/Km [5]: 0 M⁻¹ s⁻¹
Kcat/Km [6]: 55000 M⁻¹ s⁻¹
Kcat/Km [7]: 38300 M⁻¹ s⁻¹
Kcat/Km [8]: 811 M⁻¹ s⁻¹
Kcat/Km [9]: 243000 M⁻¹ s⁻¹
Kcat/Km [10]: 20700 M⁻¹ s⁻¹
Kcat/Km [11]: 772 M⁻¹ s⁻¹
Kcat/Km [12]: 84800 M⁻¹ s⁻¹
Kcat/Km [13]: 201000 M⁻¹ s⁻¹
Kcat/Km [14]: 41600 M⁻¹ s⁻¹
Kcat/Km [15]: 57700 M⁻¹ s⁻¹
Kcat/Km [16]: 73300 M⁻¹ s⁻¹
Kcat/Km [17]: 792 M⁻¹ s⁻¹
Kcat/Km [18]: 79600 M⁻¹ s⁻¹
Kcat/Km [19]: 22000 M⁻¹ s⁻¹
Kcat/Km [20]: > 500000 M⁻¹ s⁻¹
Kcat/Km [21]: 120000 M⁻¹ s⁻¹
Kcat/Km [22]: 4450 M⁻¹ s⁻¹
Kcat/Km [23]: 658000 M⁻¹ s⁻¹
Kcat/Km [24]: 475000 M⁻¹ s⁻¹
Kcat/Km [25]: 20600 M⁻¹ s⁻¹
Kcat/Km [26]: 584000 M⁻¹ s⁻¹
Kcat/Km [27]: 512000 M⁻¹ s⁻¹
Kcat/Km [28]: 0 M⁻¹ s⁻¹
Kcat/Km [29]: 0 M⁻¹ s⁻¹
Kcat/Km [30]: 0 M⁻¹ s⁻¹
Kcat/Km [31]: 103000 M⁻¹ s⁻¹
Kcat/Km [32]: 1580 M⁻¹ s⁻¹
Kcat/Km [33]: 93400 M⁻¹ s⁻¹
Kcat/Km [34]: 81000 M⁻¹ s⁻¹
Kcat/Km [35]: > 500000 M⁻¹ s⁻¹
Kcat/Km [36]: 33500 M⁻¹ s⁻¹
Kcat/Km [37]: 138000 M⁻¹ s⁻¹
Kcat/Km [38]: > 500000 M⁻¹ s⁻¹
Kcat/Km [39]: 396000 M⁻¹ s⁻¹
Kcat/Km [40]: 168000 M⁻¹ s⁻¹
Kcat/Km [41]: 143000 M⁻¹ s⁻¹
Kcat/Km [42]: > 500000 M⁻¹ s⁻¹
Kcat/Km [43]: 2980 M⁻¹ s⁻¹ and 1670 M⁻¹ s⁻¹
Kcat/Km [44]: > 100000 M⁻¹ s⁻¹
Kcat/Km [45]: 167000 M⁻¹ s⁻¹
Kcat/Km [46]: 195000 M⁻¹ s⁻¹
Kcat/Km [47]: 9340 M⁻¹ s⁻¹
Kcat/Km [48]: 22100 M⁻¹ s⁻¹
Kcat/Km [49]: 438 M⁻¹ s⁻¹
Kcat/Km [50]: > 500000 M⁻¹ s⁻¹
Kcat/Km [51]: 143000 M⁻¹ s⁻¹
Kcat/Km [52]: 0 M⁻¹ s⁻¹
